The values below come from patent US11795460B2, “Compositions and methods for TTR gene editing and treating ATTR amyloidosis” (Intellia Therapeutics, Inc., priority 2017, dated 2023).

Series [1] relates to TTR. The series can be described thus: TTR editing in primary cyno hepatocytes electroporated with Spy Cas9 protein and sgRNAs (Tables 14, 15). The class given is cell-based, cynomolgus monkey. The note with it: Table 15; primary cyno hepatocytes electroporated with Spy Cas9 protein (RNP) and cyno specific sgRNAs. On the procedure:
(§1) Primary liver hepatocytes. Primary human liver hepatocytes (PHH) and primary cynomolgus liver hepatocytes (PCH) (Gibco) were cultured per the manufacturer's protocol (Invitrogen, protocol 11.28.2012). In brief, the cells were thawed and resuspended in hepatocyte thawing medium with supplements (Gibco, Cat. CM7000) followed by centrifugation at 100 g for 10 minutes for human and 80 g for 4 minutes for cyno. The supernatant was discarded and the pelleted cells resuspended in hepatocyte plating medium plus supplement pack (Invitrogen, Cat. A1217601 and CM3000). Cells were counted and plated on Bio-coat collagen I coated 96-well plates (ThermoFisher, Cat. 877272) at a density of 33,000 cells/well for human or 60,000 cells/well for cyno (or 65,000 cells/well when assaying effects on TTR protein, described further below). Plated cells were allowed to settle and adhere for 6 or 24 hours in a tissue culture incubator at 37° C. and 5% CO2 atmosphere. After incubation cells were checked for monolayer formation and media was replaced with hepatocyte culture medium with serum-free supplement pack (Invitrogen, Cat. A1217601 and CM4000).
[…] formation was performed prior to electroporation or transfection of Spy Cas9 protein loaded with guide RNAs (RNPs) onto cells. For dual guide (dgRNAs), individual crRNA and trRNA was pre-annealed by mixing equivalent amounts of reagent and incubating at 95° C. for 2 min and cooling to room temperature. Single guide (sgRNAs) were boiled at 95° C. for 2 min and cooling to room temperature. The boiled dgRNA or sgRNA was incubated with Spy Cas9 protein in Optimem for 10 minutes at room temperature to form a ribonucleoprotein (RNP) complex.
For RNP electroporation into primary human and cyno hepatocytes, the cells are thawed and resuspended in Lonza electroporation Primary Cell P3 buffer at a concentration of 2500 cells per μL for human hepatocytes and 3500 cells per μL for cyno hepatocytes. A volume of 20 μL of resuspended cells and 5 μL of RNP are mixed together per guide. 20 μL of the mixture is placed into a Lonza electroporation plate. The cells were electroporated using the Lonza nucleofector with the preset protocol EX-147. Post electroporation, the cells are transferred into a Biocoat plate containing pre-warmed maintenance media and placed in a tissue culture incubator at 37° C. and 5% CO2.
Transfected cells were harvested post-transfection at 24, 48, or 72 hours. The genomic DNA was extracted from each well of a 96-well plate using 50 μL/well BuccalAmp DNA Extraction solution (Epicentre, Cat. QE09050) per manufacturer's protocol. All DNA samples were subjected to PCR and subsequent NGS analyses, as described herein.
(§2) To quantitatively determine the efficiency of editing at the target location in the genome, sequencing was utilized to identify the presence of insertions and deletions introduced by gene editing.
(§3) Primers were designed around the target site within the gene of interest (e.g. TTR), and the genomic area of interest was amplified.
(§4) Additional PCR was performed per the manufacturer's protocols (Illumina) to add chemistry for sequencing. The amplicons were sequenced on an Illumina MiSeq instrument. The reads were aligned to a reference genome (e.g., the human reference genome (hg38), the cynomologus reference genome (mf5), the rat reference genome (rn6), or the mouse reference genome (mm10)) after eliminating those having low quality scores. The resulting files containing the reads were mapped to the reference genome (BAM files), where reads that overlapped the target region of interest were selected and the number of wild type reads versus the number of reads which contain an insertion, substitution, or deletion was calculated.
The editing percentage (e.g., the “editing efficiency” or “percent editing” or “indel frequency”) is defined as the total number of sequence reads with insertions/deletions (“indels”) or substitutions over the total number of sequence reads, including wild type. […]

Series [2] relates to TTR. The series can be described thus: TTR editing in primary cyno hepatocytes treated with LNP formulated Spy Cas9 mRNA (SEQ ID NO: 2) and sgRNAs (Tables 17, 18). The class given is cell-based, cynomolgus monkey. The note with it: LNP formulated Spy Cas9 mRNA (SEQ ID NO: 2) and cyno matched sgRNAs, 72 hours post treatment. On the procedure:
as §1
In general, the lipid nanoparticle components were dissolved in 100% ethanol with the lipid component of various molar ratios. The RNA cargos were dissolved in 25 mM citrate, 100 mM NaCl, pH 5.0, resulting in a concentration of RNA cargo of approximately 0.45 mg/mL. The LNPs were formulated with a lipid amine to RNA phosphate (N:P) molar ratio of about 4.5 or about 6, with the ratio of mRNA to gRNA at 1:1 by weight.
The LNPs were formed by microfluidic mixing of the lipid and RNA solutions using a Precision Nanosystems NanoAssemblr™ Benchtop Instrument, according to the manufacturer's protocol. A 2:1 ratio of aqueous to organic solvent was maintained during mixing using differential flow rates. After mixing, the LNPs were collected, diluted in water (approximately 1:1 v/v), held for 1 hour at room temperature, and further diluted with water (approximately 1:1 v/v) before final buffer exchange. The final buffer exchange into 50 mM Tris, 45 mM NaCl, 5% (w/v) sucrose, pH 7.5 (TSS) was completed with PD-10 desalting columns (GE). If required, formulations were concentrated by centrifugation with Amicon 100 kDa centrifugal filters (Millipore). The resulting mixture was then filtered using a 0.2 μm sterile filter. The final LNP was stored at −80° C. until further use.
as §2, §3, §4
(§5) The editing percentage (e.g., the “editing efficiency” or “percent editing” or “indel frequency”) is defined as the total number of sequence reads with insertions/deletions (“indels”) or substitutions over the total number of sequence reads, including wild type.
Lipid nanoparticle formulations of modified sgRNAs targeting human TTR and the cyno matched sgRNA sequences were tested on primary human hepatocytes and primary cyno hepatocytes in a dose response curve. Primary human and cyno hepatocytes were plated as described in Example 1. […]

The subject of series [3] is TTR. The series can be described thus: EC50 and maximum editing in primary cyno hepatocytes treated with LNP formulated U-depleted Spy Cas9 mRNA and sgRNAs (Tables 20, 22). Set-up: key: % of sequence reads with indels or substitutions over total reads. The note with it: Table 22, LNP with U-depleted Spy Cas9 mRNA and cyno specific sgRNAs, dose response. The series is classed as cell-based, cynomolgus monkey. On the procedure:
as §1
(§6) For LNPs prepared using the cross-flow technique, the LNPs were formed by impinging jet mixing of the lipid in ethanol with two volumes of RNA solutions and one volume of water. The lipid in ethanol is mixed through a mixing cross with the two volumes of RNA solution. A fourth stream of water is mixed with the outlet stream of the cross through an inline tee. (See WO2016010840 FIG. 2.) The LNPs were held for 1 hour at room temperature, and further diluted with water (approximately 1:1 v/v). Diluted LNPs were concentrated using tangential flow filtration on a flat sheet cartridge (Sartorius, 100 kD MWCO) and then buffer exchanged by diafiltration into 50 mM Tris, 45 mM NaCl, 5% (w/v) sucrose, pH 7.5 (TSS). Alternatively, the final buffer exchange into TSS was completed with PD-10 desalting columns (GE). If required, formulations were concentrated by centrifugation with Amicon 100 kDa centrifugal filters (Millipore). The resulting mixture was then filtered using a 0.2 μm sterile filter. The final LNP was stored at 4° C. or −80° C. until further use.
as §2, §3, §4, §5
(§7) Lipid nanoparticle formulations of modified sgRNAs targeting human TTR and the cyno matched sgRNA sequences were tested on primary human hepatocytes and primary cyno hepatocytes in a dose response curve. Primary human and cyno hepatocytes were plated as described in Example 1. Both cell lines were incubated at 37° C., 5% CO2 for 24 hours prior to treatment with LNPs. […]

The subject of series [4] is TTR. As to the kind of experiment: EC50 and maximum editing in primary human hepatocytes treated with LNP formulated U-depleted Spy Cas9 mRNA and sgRNAs (Tables 19, 21). The series is classed as cell-based. Details: key: % of sequence reads with indels or substitutions over total reads. The note with it: Table 21, LNP with U-depleted Spy Cas9 mRNA and cyno specific sgRNAs, dose response. Here is the method:
as §1, §6, §2, §3, §4, §5, §7

Strand notation (5' to 3'): a small letter for the sugar, then the base; units joined by * are phosphorothioate-linked, units joined directly phosphodiester-linked; [ ] holds rarer units or linkages, { } end groups; capitals alone tell only the bases. m = 2'-O-methyl; r = 2'-OH (RNA)

B1: G000507: TTR Cyno specific sgRNA modified sequence, SEQ ID No. 119; guide sequence of CR005367 (nucleic acid)
guide: mC*mC*mA*rGrUrCrCrArGrCrGrArGrGrCrArGrArGrGrGrUrUrUrUrArGrAmGmCmUmAmGmAmAmAmUmAmGmCrArArGrUrUrArArArArUrArArGrGrCrUrArGrUrCrCrGrUrUrArUrCrAmAmCmUmUmGmAmAmAmAmAmGmUmGmGmCmAmCmCmGmAmGmUmCmGmGmUmGmCmU*mU*mU*mU
B1: in series [1], the “Avg % Deletion” value is listed as 4.60%, the “Avg % Edit” value came to 71.17% and the “Avg % Insert” value is 67.03%.

B2: G000510: TTR Cyno specific sgRNA modified sequence, SEQ ID No. 122; guide sequence of CR005370 (nucleic acid)
guide: mA*mC*mU*rUrGrUrCrUrUrCrUrCrUrArUrArCrCrCrArGrUrUrUrUrArGrAmGmCmUmAmGmAmAmAmUmAmGmCrArArGrUrUrArArArArUrArArGrGrCrUrArGrUrCrCrGrUrUrArUrCrAmAmCmUmUmGmAmAmAmAmAmGmUmGmGmCmAmCmCmGmAmGmUmCmGmGmUmGmCmU*mU*mU*mU
Turning to B2, in series [1], the “Avg % Deletion” value turned out to be 1.77%, the “Avg % Edit” value worked out at 90.80% and the “Avg % Insert” value was 89.13%. Also, the “12.5 ng mRNA, 3.9 nM sgRNA % Edit” value in series [2] is given as 61.87%.

B3: G000505: TTR Cyno specific sgRNA modified sequence, SEQ ID No. 117; guide sequence of CR005365 (nucleic acid)
guide: mC*mA*mU*rUrGrArCrArGrCrArGrGrArCrUrGrCrCrUrGrUrUrUrUrArGrAmGmCmUmAmGmAmAmAmUmAmGmCrArArGrUrUrArArArArUrArArGrGrCrUrArGrUrCrCrGrUrUrArUrCrAmAmCmUmUmGmAmAmAmAmAmGmUmGmGmCmAmCmCmGmAmGmUmCmGmGmUmGmCmU*mU*mU*mU
Consider B3, for which the “Max Editing” value in series [3] is 99.97. The “Max Editing” value in series [4] is recorded as 13.48. Besides, in series [1], the “Avg % Deletion” value is listed as 0.10%, the “Avg % Edit” value worked out at 95.53% and the “Avg % Insert” value was found to be 95.50%.

B4: G000511: TTR Cyno specific sgRNA modified sequence, SEQ ID No. 123; guide sequence of CR005371 (nucleic acid)
guide: mA*mA*mG*rUrGrArCrUrUrCrCrArGrUrArArGrArUrUrGrUrUrUrUrArGrAmGmCmUmAmGmAmAmAmUmAmGmCrArArGrUrUrArArArArUrArArGrGrCrUrArGrUrCrCrGrUrUrArUrCrAmAmCmUmUmGmAmAmAmAmAmGmUmGmGmCmAmCmCmGmAmGmUmCmGmGmUmGmCmU*mU*mU*mU
For B4, in series [1], the “Avg % Deletion” value worked out at 2.00%, the “Avg % Edit” value came out at 62.77% and the “Avg % Insert” value was found to be 60.87%.

B5: G000504: TTR Cyno specific sgRNA modified sequence, SEQ ID No. 116; guide sequence of CR005364 (nucleic acid)
guide: mA*mA*mA*rGrGrCrUrGrCrUrGrArUrGrArGrArCrCrUrGrUrUrUrUrArGrAmGmCmUmAmGmAmAmAmUmAmGmCrArArGrUrUrArArArArUrArArGrGrCrUrArGrUrCrCrGrUrUrArUrCrAmAmCmUmUmGmAmAmAmAmAmGmUmGmGmCmAmCmCmGmAmGmUmCmGmGmUmGmCmU*mU*mU*mU
In the case of B5, the “Max Editing” value in series [3] worked out at 98.04. The “Max Editing” value in series [4] amounted to 7.16. Moreover, in series [1], the “Avg % Deletion” value amounted to 7.53%, the “Avg % Edit” value is 77.17% and the “Avg % Insert” value stood at 69.73%.

B6: G000503: TTR Cyno specific sgRNA modified sequence, SEQ ID No. 115; guide sequence of CR005372 (nucleic acid)
guide: mA*mA*mA*rArGrGrCrUrGrCrUrGrArUrGrArGrArCrCrGrUrUrUrUrArGrAmGmCmUmAmGmAmAmAmUmAmGmCrArArGrUrUrArArArArUrArArGrGrCrUrArGrUrCrCrGrUrUrArUrCrAmAmCmUmUmGmAmAmAmAmAmGmUmGmGmCmAmCmCmGmAmGmUmCmGmGmUmGmCmU*mU*mU*mU
For the molecule B6, in series [3], the “Max Editing” value came out at 83.41. Also, in series [1], the “Avg % Deletion” value is given as 6.50%, the “Avg % Edit” value is on record as 58.53% and the “Avg % Insert” value is given as 52.07%.

B7: G000509: TTR Cyno specific sgRNA modified sequence, SEQ ID No. 121; guide sequence of CR005369 (nucleic acid)
guide: mA*mA*mA*rGrUrUrCrUrArGrArUrGrCrCrGrUrCrCrGrGrUrUrUrUrArGrAmGmCmUmAmGmAmAmAmUmAmGmCrArArGrUrUrArArArArUrArArGrGrCrUrArGrUrCrCrGrUrUrArUrCrAmAmCmUmUmGmAmAmAmAmAmGmUmGmGmCmAmCmCmGmAmGmUmCmGmGmUmGmCmU*mU*mU*mU
As to B7, in series [1], the “Avg % Deletion” value is recorded as 49.73%, the “Avg % Edit” value was determined as 93.03% and the “Avg % Insert” value came out at 43.60%. Moreover, the “12.5 ng mRNA, 3.9 nM sgRNA % Edit” value in series [2] is reported as 74.47%.

B8: G000508: TTR Cyno specific sgRNA modified sequence, SEQ ID No. 120; guide sequence of CR005368 (nucleic acid)
guide: mC*mC*mU*rCrCrUrCrUrGrCrCrUrCrGrCrUrGrGrArCrGrUrUrUrUrArGrAmGmCmUmAmGmAmAmAmUmAmGmCrArArGrUrUrArArArArUrArArGrGrCrUrArGrUrCrCrGrUrUrArUrCrAmAmCmUmUmGmAmAmAmAmAmGmUmGmGmCmAmCmCmGmAmGmUmCmGmGmUmGmCmU*mU*mU*mU
Turning to B8, in series [1], the “Avg % Deletion” value is on record as 4.17%, the “Avg % Edit” value turned out to be 45.63% and the “Avg % Insert” value was 41.57%.
